Numbering of substitutions follows the chain as printed. Names may count otherwise. “And” between values parts separate entries of the source, which are not always exact repeats. Equal values may be shown once.

The target of assay [1] is HRgpA-6H (Porphyromonas gingivalis) (UniProt P28784). As to the kind of experiment: ELISA on coated HRgpA-6H (coating concentration not stated); secondary Anti-BSA (HRP).
Assay [2] has the same target. As to the kind of experiment: ELISA on coated HRgpA-6H (coating concentration not stated); secondary Goat Anti-Human IgG (H+L).
Assay [3] shares this target. As to the kind of experiment: ELISA on coated HRgpA-6H (coating concentration not stated); secondary Goat Anti-Human IgG, F(ab')2.
The target is the same in assay [4]. The experiment in a line: ELISA on coated HRgpA-6H (coating concentration not stated); secondary Mouse Anti-Human IgG, F(ab')2.
Assay [5] has as its target Porphyromonas gingivalis strain W83 whole cells (surface gingipain/adhesin/hemagglutinin complex).
Assay [6] deals with P. gingivalis laboratory strains, serotypes and human clinical isolates (whole cells). As to the kind of experiment: immunogold SEM.
Assay [7] deals with Porphyromonas gingivalis strain W83 whole cells (surface gingipain/adhesin/hemagglutinin complex). The experiment in a line: scanning electron microscopy, gold-labelled KB001.
The target in assay [8] is HRgpA-6H (Porphyromonas gingivalis) (UniProt P28784). The experiment in a line: ELISA, Fab FASEBA supernatant on coated HRgpA-6H (0.0625 ug/ml).
Assay [9] shares this target. The experiment in a line: ELISA, HRgpA-6H coated 1 ug/ml; mouse Fab FASEBA supernatant; Goat Anti-MOUSE IgG (Fab specific) [HRP].
The target is the same in assay [10]. The experiment in a line: ELISA, HRgpA-6H coated 2 ug/ml; mouse Fab FASEBA supernatant; Goat Anti-MOUSE IgG (Fab specific) [HRP].
The target is the same in assay [11]. As to the kind of experiment: ELISA, HRgpA-6H coated 0.5 ug/ml; mouse Fab FASEBA supernatant; Goat Anti-MOUSE IgG (Fab specific) [HRP].
Assay [12] has the same target. As to the kind of experiment: ELISA, HRgpA-6H coated 0.25 ug/ml; mouse Fab FASEBA supernatant; Goat Anti-MOUSE IgG (Fab specific) [HRP].
Assay [13] shares this target. As to the kind of experiment: ELISA, HRgpA-6H coated 0.125 ug/ml; mouse Fab FASEBA supernatant; Goat Anti-MOUSE IgG (Fab specific) [HRP].
Assay [14] has the same target. As to the kind of experiment: ELISA, HRgpA-6H coated 0.0625 ug/ml; mouse Fab FASEBA supernatant; Goat Anti-MOUSE IgG (Fab specific) [HRP].

Sequence of UniProt P28784 (P28784 228-991 limits assumed): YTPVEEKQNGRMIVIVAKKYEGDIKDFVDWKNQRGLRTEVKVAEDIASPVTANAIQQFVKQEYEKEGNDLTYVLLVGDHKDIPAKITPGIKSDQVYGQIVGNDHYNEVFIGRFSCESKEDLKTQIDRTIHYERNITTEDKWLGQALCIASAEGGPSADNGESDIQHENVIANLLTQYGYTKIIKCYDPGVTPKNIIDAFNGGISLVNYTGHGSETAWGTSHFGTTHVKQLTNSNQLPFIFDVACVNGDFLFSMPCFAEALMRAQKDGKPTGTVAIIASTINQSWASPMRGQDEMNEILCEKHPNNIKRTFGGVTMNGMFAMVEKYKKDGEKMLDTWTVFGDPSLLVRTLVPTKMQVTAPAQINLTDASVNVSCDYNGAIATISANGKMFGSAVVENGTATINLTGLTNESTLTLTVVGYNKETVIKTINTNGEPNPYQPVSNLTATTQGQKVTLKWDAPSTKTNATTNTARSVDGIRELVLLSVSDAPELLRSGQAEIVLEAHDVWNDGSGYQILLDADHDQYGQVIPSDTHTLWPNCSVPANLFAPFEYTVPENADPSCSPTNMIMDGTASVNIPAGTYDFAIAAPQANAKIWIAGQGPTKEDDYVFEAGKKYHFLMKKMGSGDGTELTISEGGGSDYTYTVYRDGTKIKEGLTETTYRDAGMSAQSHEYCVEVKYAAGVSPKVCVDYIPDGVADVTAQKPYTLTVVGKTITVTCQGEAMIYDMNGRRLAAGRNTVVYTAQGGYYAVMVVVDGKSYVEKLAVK

With “non-related FASEBA supernatant (NC) (Fab)”, the OD450 in assay [1] was 1.09; in assay [2], 1.15 and 0.736; in assay [3], 0.672; in [4] it was 0.552 and 0.288.

B1: KB001 (antibody, V domains shown)
VH: EVQLKQSGPGLVAPSQSLSITCTVSGFSLSIYSVHWVRQPPGKGLEWLGMIWGGGSSDYNSALKSRLSISKDNSKSQVFLKMNSLQTDDTAMYYCARNGNFYAMDYWGQGTSVTVSS
VL: QIVLTQSPAIMSASLGERVTMTCTASSSVSSSFLHWYQQKPGSSPQLWIYSTSNLASGVPARFSGSGSGTSYSLTISSMEAEDAATYYCHQYHHSPYIYTFGGGTKLEIKR
Take B1: in assay [5], the Kd was 11.4 nM; the Response is 0.216 and 0.186 and 0.297; the koff was 0.000219 s⁻¹; the kon turned out to be 19200 M⁻¹ s⁻¹. This molecule came in with an average labeled density in [6] of 50 µm^-2. For the same molecule, the IgG molecules bound per bacteria (molecules per bacterium) in assay [7] is 60 and 80.

B2: KB001 parental mouse Fab VH variant M104L (Fab, V domains shown)
VH: B1 VH with M104L
VL: QIVLTQSPAIMSASLGERVTMTCTASSSVSSSFLHWYQQKPGSSPQLWIYSTSNLASGVPARFSGSGSGTSYSLTISSMEAEDAATYYCHQYHHSPYIYTFGGGTKLEIK
In the case of B2, in assay [8], the OD450nm is 0.786 and the Ratio OD(Variant)/OD(WT) was 0.904.

B3: parental mouse Fab FASEBA sample (Fab, V domains shown)
VH: B1 VH
VL: B1 VL
Take B3: the OD450 was 1.94 and 2.02 in assay [9]; 2.04 and 1.98 in assay [10]; 1.76 and 1.82 in [11]; 1.58 and 1.51 in assay [12]; 1.17 and 1.13 in assay [13]; 0.755 and 0.687 in [14].

B4: KB001 parental mouse Fab VH variant Y106D (Fab, V domains shown)
VH: B1 VH with Y106D
VL: B2 VL
On to B4, for which, in [8], the OD450nm turned out to be 0.675 and the Ratio OD(Variant)/OD(WT) stood at 0.878.

B5: KB001 parental mouse Fab VH variant M104V (Fab, V domains shown)
VH: B1 VH with M104V
VL: B2 VL
On to B5, for which, in [8], the OD450nm is 0.654 and the Ratio OD(Variant)/OD(WT) worked out at 0.85.

B6: KB001 parental mouse Fab VH variant A103M (Fab, V domains shown)
VH: B1 VH with A103M
VL: B2 VL
For the molecule B6, in assay [8], the OD450nm came out at 0.811 and the Ratio OD(Variant)/OD(WT) was determined as 0.941.

B7: KB001 parental mouse Fab VH variant Y106W (Fab, V domains shown)
VH: B1 VH with Y106W
VL: B2 VL
For the molecule B7, in [8], the OD450nm is 0.733 and 0.748; the Ratio OD(Variant)/OD(WT) is 0.953 and 0.973.

B8: KB001 parental mouse Fab VH variant A103L (Fab, V domains shown)
VH: B1 VH with A103L
VL: B2 VL
Consider B8, for which, in assay [8], the OD450nm amounted to 0.783 and the Ratio OD(Variant)/OD(WT) worked out at 0.908.

B9: KB001 parental mouse Fab VH variant Y106H (Fab, V domains shown)
VH: B1 VH with Y106H
VL: B2 VL
With B9, in [8], the OD450nm amounted to 0.722 and the Ratio OD(Variant)/OD(WT) came to 0.939.

B10: KB001 parental mouse Fab VH variant A103I (Fab, V domains shown)
VH: B1 VH with A103I
VL: B2 VL
Regarding B10, in assay [8], the OD450nm is 0.695 and 0.693; the Ratio OD(Variant)/OD(WT) is 0.806 and 0.804.

B11: KB001 parental mouse Fab VH variant Y106K (Fab, V domains shown)
VH: B1 VH with Y106K
VL: B2 VL
As for B11, in assay [8], the OD450nm came out at 0.767 and the Ratio OD(Variant)/OD(WT) was found to be 0.997.

B12: KB001 parental mouse Fab VH variant A103V (Fab, V domains shown)
VH: B1 VH with A103V
VL: B2 VL
Turning to B12, in [8], the OD450nm is 0.849 and 0.807; the Ratio OD(Variant)/OD(WT) was 0.985 and 0.936.

B13: KB001 parental mouse Fab VH variant A103K (Fab, V domains shown)
VH: B1 VH with A103K
VL: B2 VL
As for B13, in [8], the OD450nm worked out at 0.723 and the Ratio OD(Variant)/OD(WT) was 0.839.

B14: KB001 parental mouse Fab VH variant Y106Q (Fab, V domains shown)
VH: B1 VH with Y106Q
VL: B2 VL
For B14, in assay [8], the OD450nm was determined as 0.768 and the Ratio OD(Variant)/OD(WT) was 0.999.

B15: KB001 parental mouse Fab VH variant A103C (Fab, V domains shown)
VH: B1 VH with A103C
VL: B2 VL
In the case of B15, in assay [8], the OD450nm came out at 0.77 and the Ratio OD(Variant)/OD(WT) was found to be 0.893.

B16: KB001 parental mouse Fab (WT) (Fab, V domains shown)
VH: B1 VH
VL: B2 VL
With B16, in assay [8], the OD450nm came out at 0.831 and the Ratio OD(Variant)/OD(WT) turned out to be 0.956.

B17: KB001 parental mouse Fab VH variant F101L (Fab, V domains shown)
VH: B1 VH with F101L
VL: B2 VL
As for B17, in assay [8], the OD450nm stood at 0.681 and the Ratio OD(Variant)/OD(WT) stood at 0.804.

B18: KB001 parental mouse Fab VH variant Y106I (Fab, V domains shown)
VH: B1 VH with Y106I
VL: B2 VL
Take B18: in assay [8], the OD450nm is 0.73 and 0.728 and 0.764; the Ratio OD(Variant)/OD(WT) was 0.949 and 0.947 and 0.993.

B19: KB001 parental mouse Fab VH variant A103G (Fab, V domains shown)
VH: B1 VH with A103G
VL: B2 VL
On to B19, for which, in [8], the OD450nm was 0.815 and 0.804 and 0.755; the Ratio OD(Variant)/OD(WT) was 0.945 and 0.933 and 0.876.

These data come from patent US20230365662A1.
